Experimental data taken from the supplement of paper PMC9732359.
± gives the uncertainty stated by the source.

Test: protein stability index of a GFP-peptide fusion (yeast GPS) (PSI 1-4); higher = more stable; sorted into four equal gates, so the index is relative within each strain
In short: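 Tiled 17-residue yeast protein peptides were fused downstream of GFP in a plasmid that also expresses Cherry, and the pooled library was carried in yeast. Mid-log cultures in leucine-free medium were sorted into four equal gates by GFP/Cherry fluorescence ratio, and plasmids from each gate were PCR-amplified and Illumina-sequenced, with reads assigned to strains by barcodes. The protein stability index for each peptide was each gate's read frequency times its gate number, summed.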

Row | Sequence | protein stability index (doa10∆) | protein stability index (pdr5∆) | protein stability index (san1∆) | protein stability index (ubr1∆)
1 | VGLVMFSQFWYWFPLAH [RPN2] | 1.52 ± 0.078 | 1.39 ± 0.072 | 1.66 ± 0.17 | 1.41 ± 0.051
2 | VGVGKLNKLYGGAKSRG [RPS19A] | 3.29 ± 0.066 | 3.39 ± 0.1 | 3.2 ± 0.047 | 3.58 ± 0.11
3 | VHDKILEDLVFPTEIVG [RPS7A] | 3.3 ± 0.13 | 3.15 ± 0.076 | 3.27 ± 0.061 | 3.31 ± 0.1
4 | VHTIIAGLDEDGKGAVY [PRE7] | 3.63 ± 0.16 | 3.41 ± 0.099 | 3.35 ± 0.093 | 3.32 ± 0.093
5 | VHVQLLINLKISPLMKS [SRB8] | 1.44 ± 0.058 | 1.59 ± 0.048 | 1.55 ± 0.091 | 1.44 ± 0.05
6 | VIDGKLPFMQNAGPNSN [YDL088C/ASM4] | 2.93 ± 0.049 | 3.04 ± 0.054 | 2.91 ± 0.037 | 2.92 ± 0.04
7 | VIELPLKNPEIFQRVGI [RPT4] | 2.17 ± 0.11 | 2.16 ± 0.21 | 2.46 ± 0.12 | 2.29 ± 0.17
8 | VILAKNENETRDKVCKQ [PGD1] | 3.45 ± 0.18 | 2.96 ± 0.12 |  | 
9 | VISTIENVLFYIGRVNK [COB] | 1.92 ± 0.069 | 1.89 ± 0.052 | 2.43 ± 0.058 | 2.62 ± 0.065
10 | VKAFLSIFEDAIKELNY [NUT1] | 2.04 ± 0.091 | 1.73 ± 0.087 | 2.55 ± 0.19 | 2.62 ± 0.19
11 | VKCKMSALQQIMYQQML [SNF2] | 2.8 ± 0.11 | 2.56 ± 0.14 | 2.72 ± 0.12 | 2.8 ± 0.074
12 | VKDELMFSPLVDSGSND [RPO21] | 3.11 ± 0.065 | 3.17 ± 0.053 | 3.22 ± 0.047 | 3.21 ± 0.048
13 | VKDKQSKVSDDSESESG [RPN8] | 1.97 ± 0.11 | 2.78 ± 0.13 |  | 2.9 ± 0.13
14 | VKGETRIQNRVKLGLNS [PRP8] | 2.08 ± 0.16 | 2.7 ± 0.15 | 2.23 ± 0.23 | 2.58 ± 0.15
15 | VKIGDIEKWTANLLPAR [RPS22A] | 2.19 ± 0.076 | 2.65 ± 0.095 | 2.56 ± 0.076 | 3.17 ± 0.087
16 | VKKPHRYKPGTVALREI [HHT1] | 3.15 ± 0.14 | 3.17 ± 0.1 | 2.75 ± 0.094 | 3.25 ± 0.12
17 | VKLMKNITDYETHPDNS [BRR2] | 2.37 ± 0.054 | 2.42 ± 0.042 | 2.54 ± 0.049 | 2.09 ± 0.04
18 | VKNKYNVGKQLSNEIIY [PRP28] | 2.35 ± 0.062 | 2.6 ± 0.069 | 2.36 ± 0.071 | 2.57 ± 0.052
19 | VKNNQELDQEYRSCETQ [SMC4] | 2.95 ± 0.2 |  |  | 
20 | VKSEVDVQVDAEEKREA [ITC1] | 3.22 ± 0.17 | 2.97 ± 0.21 | 3.12 ± 0.23 | 3.16 ± 0.11
21 | VKSLVDNMITGVTKGYK [RPL9A] | 2.75 ± 0.081 | 3.31 ± 0.14 | 2.92 ± 0.25 | 3.11 ± 0.073
22 | VKTSPDAKKCIAACTGV [FAS1] | 2.41 ± 0.12 | 3.02 ± 0.16 | 3.01 ± 0.24 | 2.48 ± 0.08
23 | VKVKVSYQKLLKNYVLN [PRP8] | 1.33 ± 0.043 | 1.36 ± 0.035 | 1.46 ± 0.062 | 1.63 ± 0.036
24 | VKVQPEGKYIVDVAKDI [RPT6] | 3.35 ± 0.12 | 3.14 ± 0.17 | 3.29 ± 0.038 | 3.16 ± 0.11
25 | VKYINFGKTVKDGPFYT [RPC31] | 3 ± 0.1 | 2.84 ± 0.085 | 2.35 ± 0.061 | 2.29 ± 0.044
26 | VLDKMHARARGPRAVLT [RET1] | 2.88 ± 0.11 | 3.22 ± 0.11 | 3.15 ± 0.067 | 3.09 ± 0.087
27 | VLEKKTRQASDLASSKE [RPN5] | 3.38 ± 0.23 | 3.41 ± 0.15 |  | 2.97 ± 0.24

Row | Sequence | protein stability index (doa10∆) | protein stability index (pdr5∆) | protein stability index (san1∆) | protein stability index (ubr1∆)
28 | VLESHWKQDLTKEEAIK [PUP1] | 2.71 ± 0.18 | 3.15 ± 0.13 | 3.32 ± 0.12 | 3.08 ± 0.15
29 | VLGFLQLFHNLISIHSR [YJL039C/NUP192] | 2.67 ± 0.068 | 2.89 ± 0.059 | 2.85 ± 0.056 | 2.98 ± 0.048
30 | VLLATWNLEKWREIIEK [IRR1] |  | 3.14 ± 0.16 | 2.92 ± 0.1 | 
31 | VLLDARDIEKITSLYAL [CDC53] | 1.69 ± 0.038 | 1.99 ± 0.034 | 1.72 ± 0.06 | 2.02 ± 0.029
32 | VLNCLRTMYFILDGQDV [YJR042W/NUP85] | 1.87 ± 0.083 | 1.42 ± 0.091 | 1.31 ± 0.1 | 1.34 ± 0.078
33 | VLNQQLPIESQFVSKLV [BRR2] | 1.74 ± 0.066 | 1.98 ± 0.048 | 1.96 ± 0.1 | 2.01 ± 0.043
34 | VLPKIFNSVKSFDEWFN [SNF2] | 2.83 ± 0.18 | 2.43 ± 0.078 | 1.55 ± 0.2 | 1.77 ± 0.077
35 | VLPLGSVPEGTIVSNVE [RPL2A] | 3.19 ± 0.12 | 3.33 ± 0.11 | 2.78 ± 0.18 | 3.12 ± 0.094
36 | VLRKQKRYTVKKALAKA [RPL14A] | 2.08 ± 0.14 | 2.14 ± 0.1 |  | 1.55 ± 0.19
37 | VLRLKPGRKYTTLGKLS [RPL16A] | 2.83 ± 0.047 | 2.94 ± 0.05 | 2.86 ± 0.082 | 3.03 ± 0.051
38 | VLSALEGKSVDELITEG [RPP2A] |  | 3.23 ± 0.15 | 3.41 ± 0.073 | 3.45 ± 0.28
39 | VLTQLTALALKYLIKYN [CSI1] | 2.37 ± 0.11 | 2.75 ± 0.08 | 2.55 ± 0.11 | 2.47 ± 0.074
40 | VMFATNRPNTLDPALLR [RPT1] | 2.81 ± 0.075 | 3.05 ± 0.079 | 2.9 ± 0.062 | 2.91 ± 0.073
41 | VMIAEIPTLAIDSVEVE [RPB3] | 2.3 ± 0.18 | 2.65 ± 0.11 |  | 
42 | VMLRLLLVVIFKKTLRS [SRB4] | 1.59 ± 0.068 | 1.56 ± 0.057 | 1.25 ± 0.098 | 1.23 ± 0.088
43 | VMTISSLEQRTLNPDLF [RPC82] |  | 3.1 ± 0.28 |  | 
44 | VNCFHEDTELYQELIKN [YJL039C/NUP192] | 2.13 ± 0.12 | 2.82 ± 0.16 | 2.83 ± 0.081 | 2.67 ± 0.056
45 | VNEDPIFHPMIHYSWSF [YML103C/NUP188] | 2.56 ± 0.056 | 2.46 ± 0.039 | 2.42 ± 0.045 | 2.49 ± 0.046
46 | VNEIMYKCTAAMEKYLL [MTW1] | 2.19 ± 0.046 | 2.44 ± 0.06 | 2.4 ± 0.07 | 2.29 ± 0.056
47 | VNIHHLLNEYRPHQSRE [MED7] | 2.81 ± 0.084 | 2.4 ± 0.16 | 1.81 ± 0.2 | 2.25 ± 0.1
48 | VNIPSFMVRLDSEKHID [RPS9A] | 2.62 ± 0.081 | 2.64 ± 0.051 | 2.48 ± 0.059 | 2.2 ± 0.052
49 | VNISAVDNTTEQSNSRK [YCG1] | 3.26 ± 0.23 | 2.35 ± 0.28 | 3.1 ± 0.25 | 
50 | VNKYGLRADKLYEKLKQ [ISW2] | 1.52 ± 0.13 | 1.5 ± 0.11 | 1.6 ± 0.13 | 1.47 ± 0.15
51 | VNNPQEETSHLLTVTPG [RPN10] | 2.62 ± 0.13 | 2.84 ± 0.08 | 2.99 ± 0.14 | 2.86 ± 0.066
52 | VNNRDSEKGFSKEQIHG [YCS4] |  | 3.49 ± 0.18 |  | 
53 | VNVEKFNVEYFAKEKLT [RPL6A] | 1.84 ± 0.039 | 1.96 ± 0.044 | 2.08 ± 0.069 | 2.37 ± 0.036
54 | VPATAAPGTEAGIVPVS [SWI1] | 3.1 ± 0.069 | 3 ± 0.084 | 3.14 ± 0.066 | 3.15 ± 0.07
